Test results: publication PMC13181761, “New Analogs of the Compstatin Family of Clinical Complement Inhibitors with Low Picomolar Target Affinity” (Journal of Medicinal Chemistry, 2026)

Experiments:
human C3b (human) [1] = target: human C3b (human) (UniProt P01024); test: SPR; Biacore T200; human C3b amine-coupled; multicycle kinetics, serial 2-fold dilutions of peptide, 120 s injection, 180 s dissociation, regeneration 1 M NaCl; 25 °C, HBST pH 7.4; Langmuir 1:1 fit, KD = kd/ka; mean of 3 experiments
human C3b (human) [2] = target: human C3b (human) (UniProt P01024); test: SPR; Biacore T200; human C3b amine-coupled; 25 °C, HBST pH 7.4; KD determined as steady state affinity
human C3b (human) [3] = target: human C3b (human) (UniProt P01024)
human C3b (human) [4] = target: human C3b (human) (UniProt P01024); test: SPR; Biacore T200; human C3b amine-coupled; single-cycle kinetics, 5 increasing concentrations (0.5-40 nM), final dissociation 100-240 min; 25 °C, HBST pH 7.4; global Langmuir 1:1 fit; mean of 3 experiments
human C3b (human) [5] = target: human C3b (human) (UniProt P01024); remark: listed apart in the source

Row | Substance | Kd (human C3b (human) [1]) | koff (human C3b (human) [1]) | kon (human C3b (human) [1]) | other results
1 | Cp01 Arg11Lys analog (peptide) | 502 nM | 0.15 s⁻¹ | 300000 M⁻¹ s⁻¹ | –
2 | Cp01 Asp6Glu analog (peptide) | 528 nM | 0.18 s⁻¹ | 380000 M⁻¹ s⁻¹ | –
3 | Cp01 Val3Leu analog (peptide) | 552 nM | 0.11 s⁻¹ | 200000 M⁻¹ s⁻¹ | –
4 | Cp01 aIle3 analog (peptide) | – | – | – | Kd (human C3b (human) [2]): 545 nM
5 | Cp40 aIle3 analog (peptide) | – | – | – | Kd (human C3b (human) [4]): 15.6 nM; koff (human C3b (human) [4]): 0.007 s⁻¹; kon (human C3b (human) [4]): 460000 M⁻¹ s⁻¹
6 | compstatin analog Cp01 (peptide) | – | – | – | IC50 of inhibition of alternative pathway complement activation (AP ELISA, diluted normal human serum; the target in serum is C3) (human C3b (human) [3]): 1400 nM; IC50 of inhibition of classical pathway complement activation (CP ELISA, diluted normal human serum; the target in serum is C3) (human C3b (human) [3]): 20000 nM
7 | compstatin analog Cp40 (peptide) | – | – | – | IC50 of inhibition of classical pathway complement activation (CP ELISA, 5% human serum) (human C3b (human) [5]): 158 nM; Kd (human C3b (human) [4]): 0.7 nM; koff (human C3b (human) [4]): 0.001 s⁻¹; kon (human C3b (human) [4]): 1.76e+06 M⁻¹ s⁻¹
8 | compstatin analog Cp60 (peptide) | – | – | – | IC50 of inhibition of classical pathway complement activation (CP ELISA, 5% human serum) (human C3b (human) [5]): 97 nM; Kd (human C3b (human) [4]): 0.08 nM; koff (human C3b (human) [4]): 0.0001 s⁻¹; kon (human C3b (human) [4]): 1.76e+06 M⁻¹ s⁻¹; target residence (human C3b (human) [4]): > 100 min

Further lines, with some results ahead:

Row | Kd (human C3b (human) [1]) | koff (human C3b (human) [1]) | kon (human C3b (human) [1]) | Substance | other results
9 | 529 nM | 0.16 s⁻¹ | 330000 M⁻¹ s⁻¹ | Cp01 Arg11Ser analog (peptide) | –
10 | 219 nM | 0.11 s⁻¹ | 540000 M⁻¹ s⁻¹ | Cp01 Asp6Asn analog (peptide) | –
11 | 609 nM | 0.18 s⁻¹ | 310000 M⁻¹ s⁻¹ | Cp01 Asp6Ser analog (peptide) | –
12 | 19.8 nM | 0.017 s⁻¹ | 880000 M⁻¹ s⁻¹ | Cp01-V3I (peptide) | IC50 of inhibition of alternative pathway complement activation (AP ELISA, diluted normal human serum; the target in serum is C3) (human C3b (human) [3]): 200 nM; IC50 of inhibition of classical pathway complement activation (CP ELISA, diluted normal human serum; the target in serum is C3) (human C3b (human) [3]): 430 nM
13 | 1.5 nM | 0.002 s⁻¹ | 1.14e+06 M⁻¹ s⁻¹ | Cp05 Ile3 analog (peptide) | –
14 | 46.8 nM | 0.014 s⁻¹ | 300000 M⁻¹ s⁻¹ | compstatin analog Cp05 (peptide) | –
